Reference: paper PMC7514066, “ICOS agonism by JTX-2011 (vopratelimab) requires initial T cell priming and Fc cross-linking for optimal T cell activation and anti-tumor immunity in preclinical models” (PLoS ONE, 2020)

Target: T1, hB7-1-Fc (human, UniProt P33681 35-242)
T1 construct: human B7-1 (CD80), recombinant Fc fusion; also called rhB7-1; source: bought: R&D Systems
T1 sequence (looked up): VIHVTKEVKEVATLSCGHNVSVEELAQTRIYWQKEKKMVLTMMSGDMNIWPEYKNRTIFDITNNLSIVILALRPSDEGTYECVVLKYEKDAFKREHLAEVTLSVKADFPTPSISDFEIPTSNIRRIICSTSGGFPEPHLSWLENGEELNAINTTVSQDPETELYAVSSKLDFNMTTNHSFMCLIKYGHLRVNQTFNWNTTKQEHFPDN
Experiment: BLI; ForteBio Octet; tested 'in a similar way' to the ICOS antibodies (there: antibody loaded on biosensors at 10 ug/mL, Fc protein in solution, dissociation in kinetics buffer: PBS with 0.1% BSA, 0.05% sodium azide, 0.02% Tween-20; global 1:1 fit); which partner was loaded is not said for this experiment
Settings: both partners purified

B1: mCD28-Fc (Fc fusion, mouse, UniProt P31041 20-150, looked up)
chain: NKILVKQSPLLVVDSNEVSLSCRYSYNLLAKEFRASLYKGVNSDVEVCVGNGNFTYQPQFRSNAEFNCDGDFDNETVTFRLWNLHVNHTDIYFCKIEFMYPPPYLDNERSNGTIIHIKEKHLCHTQSSPKL
notes: mouse CD28, recombinant Fc fusion; source: bought: R&D Systems
  Kd: 14 nM
